Laboratory results: US20230065306A1 (INHIBRX, published 2023)
Read-outs that look alike come from different tables or passages of the source.

T1: CD123-his
T1 construct: also called histidine tagged human CD123; His-tagged CD123 ECD
T1 extracellular domain with C-terminal His tag: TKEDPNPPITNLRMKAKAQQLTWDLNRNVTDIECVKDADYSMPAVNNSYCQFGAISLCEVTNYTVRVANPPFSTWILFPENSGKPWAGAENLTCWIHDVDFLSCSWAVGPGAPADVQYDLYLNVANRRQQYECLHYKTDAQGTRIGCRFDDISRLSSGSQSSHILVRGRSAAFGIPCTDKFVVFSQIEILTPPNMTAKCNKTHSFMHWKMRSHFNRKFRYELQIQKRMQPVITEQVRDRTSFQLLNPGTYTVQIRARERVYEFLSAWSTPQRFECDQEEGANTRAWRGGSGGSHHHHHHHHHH


Assays:
[1] = biological target: T1, CD123-his; assay: BLI, CD123-his on Ni-NTA sensors preloaded with hzA5v2, second sdAb 100 nM
Procedure: (§1) The epitopes of single domain antibodies (sdAbs) that comprise VHH domains that bind CD123 were compared using Bio-Layer Interferometry. 5 ug/mL of histidine tagged human CD123 was immobilized on Nickel-nitrilotriacetic acid (Ni-NTA) coated capture sensors. 100 nM of one sdAb was then loaded onto the CD123 antigen and allowed to come to equilibrium. The sensors were then transferred into 100 nM of a second sdAb.

[2] = biological target: T2, human CD123 (full-length, on cells) (human, UniProt P26951 19-378); assay: flow cytometry, HEK 293 cells transfected with full-length CD123 (CD123-FL); Median RL-1H
T2 construct: also called CD123-FL; interleukin-3 receptor alpha chain
Procedure: (§2) Binding of sdAbs to human CD123 was assessed by flow cytometry. […] HEK 293 cells were transiently transfected with a plasmid encoding full-length CD123 (UniProt Accession No. P26951-1; mature form, SEQ ID NO: 1) and used as the positive cell line in FIGS. 2A to 2M, and untransfected HEK 293 cells were used as CD123-negative cells. In FIG. 2N, Molm-13 cells, which express CD123, were used as the positive cell line. Each cell type was plated at 30,000 cells/well in FACS buffer (PBS 1% BSA, 0.1% NaN₃ pH 7.4) on a 96-well round-bottom plate. The sdAbs were diluted in FACS buffer in a 3-fold, 11 point serial dilution. The sdAb dilutions were added to the plated cells, and assay plates were incubated for 30 minutes at 4° C. After washing twice in 150 μL of FACS buffer, cells in each well were resuspended in 100 μL of 1:2000 Alexa Fluor 647-conjugated Anti-Human IgG secondary diluted in FACS buffer and incubated at 4° C. for 30 minutes. The cells were washed twice more, then bound antibody was detected by flow cytometry.
(§3) Flow cytometric analysis was performed on an Intellicyte iQue Plus and fluorescence was plotted as median fluorescence intensity. The apparent affinity (Kd, nM) was determined using one site binding non-linear regression in PRISM graph software.
Target sequence in this assay (P26951 19-378): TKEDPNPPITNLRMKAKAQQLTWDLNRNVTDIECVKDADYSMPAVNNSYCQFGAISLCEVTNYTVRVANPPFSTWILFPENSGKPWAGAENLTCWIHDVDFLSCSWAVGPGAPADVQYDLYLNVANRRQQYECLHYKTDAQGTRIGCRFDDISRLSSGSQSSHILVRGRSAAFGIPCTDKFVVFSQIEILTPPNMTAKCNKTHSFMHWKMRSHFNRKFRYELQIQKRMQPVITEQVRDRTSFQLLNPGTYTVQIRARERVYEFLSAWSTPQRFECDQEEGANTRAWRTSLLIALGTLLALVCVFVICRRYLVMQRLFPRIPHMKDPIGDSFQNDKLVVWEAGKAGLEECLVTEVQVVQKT

[3] = biological target: T2, human CD123 (full-length, on cells); assay: flow cytometry blocking assay, sdAb titrated on CD123-expressing HEK-293 cells with a fixed amount of IL-3-mFc
Procedure: (§4) Certain CD123-binding sdAbs were tested for the ability to block CD123 binding to IL-3 by titrating the sdAb onto CD123 expressing HEK-293 cells in the presence of a fixed amount of recombinant IL-3-mFc. Bound IL-3 was detected by flow cytometry using fluorophore conjugated anti-mouse IgG specific secondary antibody.

[4] = biological target: T2, human CD123 (full-length, on cells); assay: as above; remark: listed apart in the source
Procedure: as §4

[5] = biological target: T1, CD123-his; assay: BLI, CD123-his on Ni-NTA sensors preloaded with hz1B11v28, second sdAb 100 nM
Procedure: as §1

[6] = biological target: T2, human CD123 (full-length, on cells); assay: flow cytometry on HEK 293 cells transfected with full-length CD123; apparent Kd, one-site fit
Procedure: as §2, §3
Target sequence in this assay (P26951 19-378): as above

[7] = biological target: T2, human CD123 (full-length, on cells); assay: flow cytometry, Molm-13 cells expressing CD123; Median RL1-H
Procedure: as §2, §3

[8] = biological target: T2, human CD123 (full-length, on cells); assay: flow cytometry on Molm-13 cells, which express CD123; apparent Kd, one-site fit; apparent Kd by flow cytometry on CD123-expressing cells; the places shown do not name the cell line for this sdAb
Procedure: as §2, §3

Row | Binder | binding result [1] | EC50 (read off the curve) [2] | IC50 (read off the curve) [3] | IC50 (read off the curve) [4] | binding result [5] | Kd [6] | EC50 (read off the curve) [7] | Kd [8]
1 | C5-IgG1 (Fc fusion, also called sdAb C5) QVTLRESGGGLVQAGGSLRLSCKGSGRAINTYAMGWFRQAPGKEREFVAAISWNGGHTRYADSVQGRFAISRDNADNTMYLQMNSLKPEDTAVYHCAAYSDYHRIATMEADADSWGQGTQVTVDKTHTCPPCPAPGGPSVFLFPPKPKDTLMISRTPEVTCVVVDVSHEDPEVKFNWYVDGVEVHNAKTKPREEQYNSTYRVVSVLTVLHQDWLNGKEYKCKVSNKALPAPIEKTISKAKGQPREPQVYTLPPSRDELTKNQVSLTCLVKGFYPSDIAVEWESNGQPENNYKTTPPVLDSDGSFFLYSKLTVDKSRWQQGNVFSCSVMHEALHNHYTQKSLSLSPGK | binds | ~1 nM | ~2 nM | ~0.7 nM | – | – | – | –
2 | hz4F2v3-IgG1 (Fc fusion, also called hz4F2v3 sdAb) EVQLVESGGGEVQPGGSLRLSCAASGRTVSNYPMAWFRQAPGKEREFVAHISWSGITSILNSVNDRFTISRDNAKNTIYLQMSSLRAEDTAVYYCAAAQRPTAGPKGPFGYWGQGTLVTVDKTHTCPPCPAPGGPSVFLFPPKPKDTLMISRTPEVTCVVVDVSHEDPEVKFNWYVDGVEVHNAKTKPREEQYNSTYRVVSVLTVLHQDWLNGKEYKCKVSNKALPAPIEKTISKAKGQPREPQVYTLPPSRDELTKNQVSLTCLVKGFYPSDIAVEWESNGQPENNYKTTPPVLDSDGSFFLYSKLTVDKSRWQQGNVFSCSVMHEALHNHYTQKSLSLSPGK | – | 2 to 3 nM | – | – | binds | 2.4 nM | – | –
3 | hz1F5v6-IgG1 (Fc fusion) EVQLVESGGGEVQPGGSLRLSCAASGRAINMYAMGWFRQAPGKEREFVAAINWNAAYTQYAESVKGRFTISRDNAKNTLYLQMSSLRAEDTAVYYCSADADYNTYVSPNKRVSYWGQGTLVTVKPDKTHTCPPCPAPGGPSVFLFPPKPKDTLMISRTPEVTCVVVDVSHEDPEVKFNWYVDGVEVHNAKTKPREEQYNSTYRVVSVLTVLHQDWLNGKEYKCKVSNKALPAPIEKTISKAKGQPREPQVYTLPPSRDELTKNQVSLTCLVKGFYPSDIAVEWESNGQPENNYKTTPPVLDSDGSFFLYSKLTVDKSRWQQGNVFSCSVMHEALHNHYTQKSLSLSPGK | – | – | – | – | – | – | ~1 nM | 1.36 nM
